Patent US7449443B2, “Method for stabilization of proteins using non-natural amino acids” (California Institute of Technology, priority 2000, dated 2008)

Columns and labels:
[1] = target: oligonucleotides containing the AP-1 binding site; experiment: Mobility shift (gel-retardation) assay, AP-1; details: densitometry analysis of mobility shift assay
Excerpt: (§1) (FIG. 3B) Leu-bZip binds to both the AP-1 and CREB binding sites with equal affinities even though the spacing between the half-sites of DNA is different.

[2] = target: oligonucleotides containing the CREB binding site; experiment: Mobility shift (gel-retardation) assay, CREB; details: densitometry analysis of mobility shift assay
Excerpt: as §1

[3] = test system: nonspecific sequence (NON) oligonucleotides; experiment: Mobility shift (gel-retardation) assay, nonspecific sequence; format: binding
Excerpt: as §1

[4] = CD thermal unfolding of GCN4-p1 coiled-coil peptides; format: physicochemical
Protocol: (§2) Circular Dichroism (CD) Analysis. CD spectra were recorded on an Aviv 62DS spectropolarimeter (Lakewood, N.J.) in PBS buffer, pH 7.4. All peptide concentrations were determined by amino acid analysis of a stock solution (5 mg/ml). Experiments were performed in a rectangular cell with pathlength of 1 cm for low concentration samples and pathlength of 1 mm for high concentration samples. Spectra were scanned from 250 nm to 200 nm with data taken every 1 nm. The temperature of the solution was maintained by a thermostatically controlled cuvette holder (HP model 89101A). Temperature scans were performed from 0° C. to 100° C. in 1° C. steps. Three scans were performed on a single sample and averaged. Each data point was collected after 30 seconds of thermal equilibration at the desired temperature. Urea titration scans were performed manually starting with the 8 M concentrated sample followed by serial dilution to the desired urea concentration. At each concentration, the sample was allowed to equilibrate for 5 min before recording the CD signal.
(§3) The analysis of CD thermal melting data was performed according to a previously described procedure using a two-state model (Schneider, J. P.; Lear, J. D.; DeGrado, W. F. J. Am. Chem. Soc. 1997, 119, 5742-5743). Temperature-dependent ellipticity data for each protein at different concentrations were fitted globally using a non-linear least-squares fitting procedure supplied with the Origin 6.0 software. For wild-type A1, the concentrations used for curve fitting were 10 and 100 μM, while 2 and 100 μm were used to fit data for the 92% fluorinated A1. The thermodynamic quantities Tm, ΔHm, ΔCp and Kd were parameters of the fitting procedure and are reported in the 1 M standard state. The free energy of folding at any temperature is given by equation 1. ΔG°=ΔHm(1−T/Tm)−ΔCp((Tm−T)+T1n(T/Tm) (1)
The thermal stabilities of the coiled-coil dimers of Leu-GCN4-p1 and Tfl-GCN4-p1 were examined by CD spectroscopy (FIG. 2B). A significant increase in the thermal stability of Tfl-GCN4-p1 as compared to Leu-GCN4-p1 is reflected in an elevation of the thermal denaturation temperature from 48° C. to 61° C. The 13° C. increase in Tm is remarkable in view of the fact that no increase in the thermal stability of GCN4-p1 has been reported based solely on substitution of the leucine residues at the d-positions. […] As expected for a monomer-dimer equilibrium, the denaturation curves depend on the peptide concentrations, and their midpoints shift to higher temperature as the concentrations of peptides are increased (FIG. 2C). The thermodynamic changes associated with the transition (folded dimer to unfolded monomers) is calculated from the melting curves by fitting the data to a monomer-dimer equilibrium (J. P. Schneider, J. D. Lear and W. F. DeGrado, J. Am. Chem. Soc. 119, 5742, 1997). Global analysis of the thermal unfolding curves at two different concentrations, approximately 85 μM and 3 μM, gave a calculated ΔH° of 60.2 kcal mol^−1, Tm of 385.4 K and ΔCp of 530 cal mol^−1 K^−1 for Tfl-GCN4-p1 (1 M standard state); the corresponding values for Leu-GCN4-p1 are 70.3 kcal mol^−1, 365.6 K and 740 cal mol^−1 K^−1 respectively.

[5] = test system: E. coli leucine auxotroph SG13009; experiment: Analog incorporation assay: A1 expression in leucine auxotroph; format: cell-based; details: leucine-free medium supplemented with analog, western blot
Protocol: Analog Incorporation Assay. The expression vector pQE-A1, which contains the coding sequences for the protein A1 (FIG. 4A) was obtained from US Army Natick RD&E Center (Natick, Mass.). The E. coli leucine auxotroph SG13009 was obtained from Qiagen (Chatsworth, Calif.) and transformed with plasmids pREP4 and pQE-A1, to yield the expression host […] medium (30 ml) supplemented with 1 mM MgSO4, 1 mM CaCl2, […], 1 mg/L thiamin and the antibiotics ampicillin (200 mg/L) and kanamycin (25 mg/L) were inoculated with 1 ml of an overnight 2×YT culture of the expression strain. […] The supernatant was removed and the cell pellets were washed with 0.9% NaCl and sedimented (5000 g, 10 min, 4° C.). The washing and sedimentation steps were repeated three times to remove residual leucine. The washed cells were then resuspended in 31 ml of supplemented […] medium, without leucine. Aliquots (5 ml) were added to test tubes containing no leucine (negative control), L-leucine (20 mg/L, positive control), DL-trifluoroleucine (40 mg/L) or DL-hexafluoroleucine (40 mg/L). The cultures were grown for 10 min at 37° C., and isopropyl-β-D-thiogalactopyranoside (IPTG) was added to a final concentration of 1 mM. […] The whole cell lysate was analyzed by 15% SDS-PAGE. The proteins were detected by western blotting with an antibody specific for the N-terminal His-Tag of A1 (FIG. 4B).

[6] = target: LeuRS (Escherichia coli, UniProt P07813); experiment: Level of Tfl incorporation versus leucine concentration in expression medium; format: cell-based, E. coli; details: estimated from 50% substitution at leucine 8 mg/L (50 μM) and Tfl (DL) 100 mg/L (540 μM)
Protocol: Normal leucine concentration in expression medium is 40 mg/L. The extent of incorporation is determined by amino acid analysis.
Protein Expression and Purification. M9 medium (1 L) supplemented as described above was inoculated with 30 ml of fresh overnight culture of the expression strain. After the culture had grown to OD600 of 1.0, it was subjected to centrifugation and washing procedures as described above. The cell pellet was suspended in 1 L M9 medium supplemented with trifluoroleucine (100 mg/L) and leucine in appropriate concentrations. IPTG was added after 10 min to induce protein expression. The expression of protein was monitored by removing an aliquot (1 ml) of the culture every hour and analyzing by SDS-PAGE. Cells were collected after 3 hr by centrifugation (5000 g, 15 min, 4° C.). The pellets were resuspended in 20 ml of buffer A and stored at −80° C. overnight. […] Extent of trifluoroleucine incorporation was determined by amino acid analysis (DNA/Protein Analysis Facility, Cornell University) and MALDI mass spectrometry (Protein/Peptide Micro Analytical Laboratory, Caltech).
The degree of substitution is determined through the diminution of leucine mole fractions from amino acid analysis (AAA). […]

[7] = CD thermal denaturation of A1 proteins with two-state global fitting; format: physicochemical; details: for ΔCp (1M) heat capacity change upon folding: 1M standard state, uncertainty 120; for ΔHm (1M) enthalpy of folding: at midpoint temperature, extrapolated to 1M standard state, uncertainty 4.8; for Tm (1M): extrapolated to 1M standard state by non-linear least square fit, uncertainty ± 1.5° C.; for Tm (10 μM): midpoint of thermal denaturation curve at 10 μM protein
Protocol: Insert: The thermal melting temperature (Tm) plotted as a function of level of incorporation. Tm is defined as the temperature at which 50% of the peptide has unfolded. The stability of the protein increases with increasing level of 2trifluoroleucine substitution. (10 μM protein concentration, PBS buffer, pH 7.4).
as §2, §3
Global thermodynamic fitting was used to obtain the thermodynamic quantities associated with the monomer to dimer transition for A1-WT and FA1-92. The intermediate level fluorinated proteins, FA1-17 and FA1-29 were not fitted using the procedure because the heterogeneity of the samples would not be described accurately by the two-state model. The presence of a heterogeneous population can be seen from the broadening of the thermal melting curves at substitution rates of 17 and 29%. However, even for the nearly completely substituted FA1-92, the protein sample was still a mixed population because Tfl was used as an equal molar mixture of (2S, 4S) and (2S, 4R) diastereomers. The free energy of unfolding for FA1-92 was 2.4 kcal/mol more favorable than A1-WT at 37° C., which corresponded to 0.4 kcal/mol of stabilizing energy per Tfl molecule involved at the helix interface. Considering the large number of leucines packed in the hydrophobic core of proteins, the additive stabilizing effects of Tfl can be quite substantial.

[8] = Urea titration of A1 proteins by CD; format: physicochemical; details: 0° C., 10 μM protein, PBS, pH 7.4
Protocol: The fraction of unfolded protein is plotted against increasing urea concentration. Insert: The urea concentration at which 50% of protein is denatured is plotted against the extent of fluorination. (10 μM protein concentration, PBS buffer, pH 7.4).
as §2

[9] = global analysis of thermal unfolding curves, 1 M standard state

Sequence of LeuRS (P07813 whole entry): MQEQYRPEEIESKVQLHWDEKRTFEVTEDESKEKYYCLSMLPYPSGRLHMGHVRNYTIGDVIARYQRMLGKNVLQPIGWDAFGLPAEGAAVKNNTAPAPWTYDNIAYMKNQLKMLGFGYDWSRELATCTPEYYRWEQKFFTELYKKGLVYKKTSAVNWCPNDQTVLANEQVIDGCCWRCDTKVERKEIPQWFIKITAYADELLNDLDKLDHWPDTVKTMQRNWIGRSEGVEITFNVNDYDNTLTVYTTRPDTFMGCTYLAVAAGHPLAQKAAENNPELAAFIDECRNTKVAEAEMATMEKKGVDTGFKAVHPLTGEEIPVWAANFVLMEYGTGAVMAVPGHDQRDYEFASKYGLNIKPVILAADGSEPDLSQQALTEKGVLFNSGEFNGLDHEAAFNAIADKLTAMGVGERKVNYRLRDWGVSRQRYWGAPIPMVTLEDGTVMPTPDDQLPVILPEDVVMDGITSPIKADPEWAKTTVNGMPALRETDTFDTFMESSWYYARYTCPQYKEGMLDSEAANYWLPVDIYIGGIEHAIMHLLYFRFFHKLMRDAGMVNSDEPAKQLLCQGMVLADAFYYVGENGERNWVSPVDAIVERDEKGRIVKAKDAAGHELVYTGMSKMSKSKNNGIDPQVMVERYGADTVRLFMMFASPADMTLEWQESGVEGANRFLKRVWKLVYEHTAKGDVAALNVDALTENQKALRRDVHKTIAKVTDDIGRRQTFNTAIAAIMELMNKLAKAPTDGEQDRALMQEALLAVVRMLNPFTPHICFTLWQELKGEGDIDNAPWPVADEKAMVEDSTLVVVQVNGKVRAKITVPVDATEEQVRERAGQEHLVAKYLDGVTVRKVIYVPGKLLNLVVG

## Leu-bZip: wild-type 56 amino acid segment (residues 226-281) of the eukaryotic transcription factor GCN4
[1]
  Kd: 12.8 ± 1 nM
[2]
  Kd: 4.8 ± 0.5 nM
[3]
  recognition of nonspecific (NON) sequences: lack of protein-bound DNA

## Leu-GCN4-p1: wild type form of the leucine zipper peptide GCN4-p1, not acylated at the N-terminus [reference compound]
[4]; CD spectroscopy, coiled-coil dimers
  thermal denaturation temperature (Tm): 48 °C
[4]; global analysis of thermal unfolding curves at approximately 85 μM and 3 μM, 1 M standard state
  ΔH°: 70.3 kcal/mol
[4]; [9]
  Tm: 92.5 °C
  ΔCp: 740 cal mol^−1 K^−1

## CC(C[C@H](N)C(=O)O)C(F)(F)F (stereo partly shown) [Tfl, 5,5,5-trifluoroleucine]
[5]
  ability to support protein synthesis (A1 expression): support protein synthesis
[6]
  specificity for LeuRS compared to leucine: reduced five times

## N[C@@H](CC(C(F)(F)F)C(F)(F)F)C(=O)O [Hfl, 5,5,5,5′,5′,5′-hexafluoroleucine]
[5]
  ability to support protein synthesis (A1 expression): does not support measurable protein synthesis

B1: FA1-92: trifluoroleucine-substituted A1 protein, 92% replacement of leucine by amino acid analysis (protein)
chain: MRGSHHHHHHGSMASGDLENEYAQLEREVRSLEDEAAELEQKVSRLKNEIEDLAEIGDLNNTSGIRRPAAKLN
[7]; 10 μM protein, PBS, pH 7.4
  Tm elevation compared to A1-WT: 13 °C
[7]
  ΔCp (1M) heat capacity change upon folding: −272 cal/mol-K
  ΔHm (1M) enthalpy of folding: -77.0 kcal/mol
  Tm (1M): 116 °C
[7]; at 37° C.
  free energy of unfolding more favorable than A1-WT: 2.4 kcal/mol
  stabilizing energy per Tfl molecule involved at the helix interface: 0.4 kcal/mol
[7]; PBS, pH 7.4
  Tm (10 μM): 67 °C
[7]; thermal and chemical (urea) unfolding studies
  resistance to thermal and chemical denaturation: highly resistant
[8]
  Curea, 50% (Cm), midpoint urea denaturation concentration: 7 M

B2: A1-WT: wild type leucine-zipper protein A1 with eight leucine residues, expressed in E. coli (protein)
chain: B1 chain
[7]
  ΔCp (1M) heat capacity change upon folding: −252 cal/mol-K
  ΔHm (1M) enthalpy of folding: -70.9 kcal/mol
  Tm (1M): 103 °C
[7]; PBS, pH 7.4
  Tm (10 μM): 54 °C
[8]
  Curea, 50% (Cm), midpoint urea denaturation concentration: 2.7 M
[8]; listed as Al-WT
  Curea, 50% (Cm), midpoint urea denaturation concentration: 2.8 M
